These results are taken from article PMC10816986, “The Role of Key Amino Acids of the Human Fe(II)/2OG-Dependent Dioxygenase ALKBH3 in Structural Dynamics and Repair Activity toward Methylated DNA” (International Journal of Molecular Sciences, 2024).

“And” between values parts separate entries of the source, which are not always exact repeats. Equal entries are not always repeated.

A short description of data set [1]: Thermal denaturation followed by CD spectroscopy. The conditions noted are these: for Tm: apoprotein 0.2 mg/mL, 10 mM potassium phosphate pH 7.8, 50 mM (NH4)2SO4; for ΔH (enthalpy of unfolding) / ΔS (entropy of unfolding): apoprotein, single-stage model; for ΔG^298: calculated from ΔH and ΔS at 298 K. It counts as physicochemical. Here is the method: The effect of substitutions of conserved amino acids in the active site of ALKBH3 on its thermal stability was studied by circular dichroism (CD) spectroscopy combined with thermal denaturation of the samples. The CD data were collected for wt and mutant apoproteins at various temperatures (25–70 °C) with 2–5 °C intervals (Supplementary Figure S3). […] Melting profiles expressed as a temperature dependence of the mean residue ellipticity at 218 nm were largely sigmodal, indicating the presence of a single transition between the folded and unfolded state (Figure 6B).
The melting profiles were analyzed quantitatively using characteristic wavelengths between 208 and 222 nm by a single-stage model.
Thermal stability experiments were performed under the same conditions. The spectra were collected from 25 to 70 °C, with the samples incubated at each temperature for 3–5 min before measuring. After that, each sample was gradually cooled to 25 °C and the spectrum was recorded again to observe possible refolding of the protein. Melting curves were corrected for background, transformed to the mean residue ellipticity units, and smoothed using the Savitzky–Golay method with a polynomial order of 3. Values of [θ] at wavelengths of 208 and 218 nm as a function of temperature were used to determine the thermodynamics of folding. The values of Tm and ΔH were determined by non-linear regression analysis with the help of Equations (6)–(8):(6) θt=θu+θf−θuK/1+K, (7) K=exp(ΔH/1.987·tt/Tm−1)=exp(−ΔH−t·ΔS/1.987·t), (8) ΔG=−RTlnK where θt—the mean residue ellipticity (in deg·cm^2·dmol^−1) at any given temperature t; θu—the mean residue ellipticity of the unfolded protein; θf—the mean residue ellipticity of the folded protein; K—the constant of unfolding; Tm—the melting temperature; ΔH—the enthalpy of unfolding, ΔS—the entropy of unfolding.
Figure 6 Thermal stability of wt and mutant ALKBH3 proteins measured by CD spectroscopy. (A) Spectra of wt ALKBH3 between 180 and 270 nm at 25 °C (light blue), after heating to 70 °C (dark blue), and cooling again to 25 °C (dashed light blue). (B) Representative melting profiles of wt (blue), Y143F (yellow), Y143A (green), L177A (red), and H191A ALKBH3 (violet) derived from the θ values at 218 nm. The unfolding transitions were monitored 0.2 mg/mL of the apoprotein in 10 mM Potassium Phosphate (pH 7.8) and 50 mM (NH4)2SO4.

The next data set deals with m3C substrate. Description: Equilibrium fluorescence titration with methylated DNA. Format: binding. The conditions noted are these: for Kd: 1 µM apoprotein, 2 mM EDTA, 25 °C, read-out: Dissociation constant Kd, m3C substrate; for weakening of contacts with the DNA substrate relative to wt: ratio of Kd for m3C substrate. From the text: To investigate the impact of selected mutations on ALKBH3’s ability to bind its cofactor, co-substrate, and methylated DNA, the fluorescent titration method was employed. It is well-established that enzyme–ligand binding typically leads to a protein conformational change, which in turn can alter the fluorescence intensity of tryptophan and tyrosine residues within the protein sequence. […] In this study, transitional metals (Fe(II), Ni(II), and Co(II)), 2OG, and the m3C substrate served as titrants. Protein fluorescence quenching was measured after the addition of an excess of the ligand to 1 µM of enzyme (Supplementary Figure S2). To determine the equilibrium dissociation constant’s Kd values, the resulting titration curves were analyzed using a non-linear regression algorithm (see Section 4.3 of “Materials and Methods” for details). […] As indicated by the data presented in Table 2, the stability of the wt ALKBH3 apoenzyme’s affinity to various ligands and damaged DNA generally corresponds to the stability of such complexes for AlkB and ALKBH2 enzymes. […] The binding of Ni(II) and Co(II) ions of similar radii was weakened by approximately two-fold. […] This behavior is more characteristic of the bacterial homolog AlkB rather than human ALKBH2 [7].
The affinity of the active site of ALKBH3 for methylated DNA was studied using the m3C substrate without fluorescent labels (see Section 4). […] The replacement of key amino acids leads to an approximate 1.4-fold weakening of contacts with the DNA substrate for the Y143F mutant, 2.3-fold for Y143A, 2-fold for L177A, and 1.5-fold for H191A. Therefore, the removal of the bulky side chain of Tyr143 dramatically affects the ability of ALKBH3 to bind damaged DNA, while withdrawal of its OH group only slightly weakens protein–DNA interactions.
The intrinsic tryptophan fluorescence quenching was monitored at the maximum of emission (345 nm, in most cases) using an excitation wavelength of 280 nm, and 5 nm slits. An amount of 2 mM of (NH4)2Fe(SO4)2·6H2O, 2 mM of NiSO4×7H2O, 2 mM of CoSO4·7H2O, 2 mM of 2OG, or 100 µM of m3C substrate was titrated into 1 µM of apoprotein (a free enzyme with no metal or 2OG added) in the presence of 50 mM of HEPES-KOH (pH 7.8), 50 mM of KCl, and 10 mM of MgCl2. When titrating with DNA, the buffer was supplemented with 2 mM of EDTA. The dissociation constant Kd for a model of one-step binding (E + L ↔ EL) was determined using Equations (2)–(5) and a non-linear regression algorithm in the OriginPro 8.1 software (OriginLab Corp., Northampton, MA, USA):(2) Kd=E[L]/[EL] (3) F=f0+f1E+f2[EL] (4) e0=E+[EL] (5) l0=L+[EL] where F is the observed fluorescence intensity at any given ligand (L) concentration; f0 is the background fluorescence; f1 and f2 are partial fluorescence intensities of the free enzyme (E) and enzyme–ligand complex (EL), respectively; e0 and l0 are total concentrations of the enzyme and ligand.
Figure S2. Equilibrium binding of the wild-type and mutant ALKBH3 proteins to transition metals, 2OG, or m3C-containing DNA. The quenching of the enzyme ﬂuorescence is shown as a function of Fe(II) (A), Ni(II) (B), Co(II) (C), 2OG ( D), and single-stranded m3C substrate (E). The protein concentration was 1 µM. In the course of titration by Fe(II), a sodium ascorbate (1mM) was added to keep the metal in a reduced state. Experimental data points were ﬁtted to a single-site binding mode l (see “Materials and Methods”). Each trace represents the average of three technical […]
(1 picture or pasted object on this page, not shown here)

B1: wt ALKBH3: wild-type human Fe(II)/2OG-dependent dioxygenase ALKBH3 with N-terminal His-tag, expressed in E. coli (protein, UniProt Q96Q83 1-286, looked up)
Alpha-ketoglutarate-dependent …: MEEKRRRARVQGAWAAPVKSQAIAQPATTAKSHLHQKPGQTWKNKEHHLSDREFVFKEPQQVVRRAPEPRVIDREGVYEISLSPTGVSRVCLYPGFVDVKEADWILEQLCQDVPWKQRTGIREDITYQQPRLTAWYGELPYTYSRITMEPNPHWHPVLRTLKNRIEENTGHTFNSLLCNLYRNEKDSVDWHSDDEPSLGRCPIIASLSFGATRTFEMRKKPPPEENGDYTYVERVKIPLDHGTLLIMEGATQADWQHRVPKEYHSREPRVNLTFRTVYPDPRGAPW
modifications: N-terminal His-tag
notes: wild-type human Fe(II)/2OG-dependent dioxygenase ALKBH3 with N-terminal His-tag, expressed in E. coli
The Tm is the temperature at which the thermal transition is half complete. Broadly, the Kd is the equilibrium constant for the complex coming apart. As to B1, in data set [1], the Tm was 45.5 °C and 45.6 °C; the “ΔH (enthalpy of unfolding)” value is 42 kcal/mol; the “ΔS (entropy of unfolding)” value is recorded as 133 ± 2 cal/mol·K; the “ΔG^298” value was 3.4 ± 0.1 kcal/mol. In data set [1] (listed as wt), the melting temperature (Tm) was determined as 45.6 ± 0.7 °C and the “ΔH (enthalpy of unfolding)” value is on record as 43 ± 1 kcal/mol. Also, the dissociation constant Kd at m3C substrate was 2.8 ± 0.1 µM.

B2: L177A ALKBH3: ALKBH3 mutant, Leu177 replaced with Ala (protein, UniProt Q96Q83 1-286, looked up, variant L177A)
Alpha-ketoglutarate-dependent …: MEEKRRRARVQGAWAAPVKSQAIAQPATTAKSHLHQKPGQTWKNKEHHLSDREFVFKEPQQVVRRAPEPRVIDREGVYEISLSPTGVSRVCLYPGFVDVKEADWILEQLCQDVPWKQRTGIREDITYQQPRLTAWYGELPYTYSRITMEPNPHWHPVLRTLKNRIEENTGHTFNSLACNLYRNEKDSVDWHSDDEPSLGRCPIIASLSFGATRTFEMRKKPPPEENGDYTYVERVKIPLDHGTLLIMEGATQADWQHRVPKEYHSREPRVNLTFRTVYPDPRGAPW
For B2, in data set [1], the “reduction in melting temperature relative to wt” value was found to be 1.1 °C, the Tm was determined as 44.5 ± 0.6 °C, the “ΔH (enthalpy of unfolding)” value was found to be 79 ± 5 kcal/mol and the “ΔS (entropy of unfolding)” value is given as 249 ± 1.3 cal/mol·K. In addition, the “ΔG^298” value in data set [1] is 4.8 ± 0.4 kcal/mol. In addition, on m3C substrate, the Kd was 5.7 ± 0.3 µM and the “weakening of contacts with the DNA substrate relative to wt” value is on record as ~2 fold.

B3: H191A ALKBH3: ALKBH3 mutant, His191 replaced with Ala (protein, UniProt Q96Q83 1-286, looked up, variant H191A)
Alpha-ketoglutarate-dependent …: MEEKRRRARVQGAWAAPVKSQAIAQPATTAKSHLHQKPGQTWKNKEHHLSDREFVFKEPQQVVRRAPEPRVIDREGVYEISLSPTGVSRVCLYPGFVDVKEADWILEQLCQDVPWKQRTGIREDITYQQPRLTAWYGELPYTYSRITMEPNPHWHPVLRTLKNRIEENTGHTFNSLLCNLYRNEKDSVDWASDDEPSLGRCPIIASLSFGATRTFEMRKKPPPEENGDYTYVERVKIPLDHGTLLIMEGATQADWQHRVPKEYHSREPRVNLTFRTVYPDPRGAPW
Consider B3, for which, in data set [1], the midpoint of thermal melting (Tm) is 42.7 ± 0.1 °C; the “ΔH (enthalpy of unfolding)” value is recorded as 127 ± 9 kcal/mol; the “ΔS (entropy of unfolding)” value is 403 cal/mol·K and 403 ± 0.4 cal/mol·K; the “ΔG^298” value was 6.9 ± 0.5 kcal/mol. At m3C substrate, the Kd is 4.3 ± 0.3 µM and the “weakening of contacts with the DNA substrate relative to wt” value is ~1.5 fold.

B4: Y143A ALKBH3: ALKBH3 mutant, Tyr143 replaced with Ala (protein, UniProt Q96Q83 1-286, looked up, variant Y143A)
Alpha-ketoglutarate-dependent …: MEEKRRRARVQGAWAAPVKSQAIAQPATTAKSHLHQKPGQTWKNKEHHLSDREFVFKEPQQVVRRAPEPRVIDREGVYEISLSPTGVSRVCLYPGFVDVKEADWILEQLCQDVPWKQRTGIREDITYQQPRLTAWYGELPYTASRITMEPNPHWHPVLRTLKNRIEENTGHTFNSLLCNLYRNEKDSVDWHSDDEPSLGRCPIIASLSFGATRTFEMRKKPPPEENGDYTYVERVKIPLDHGTLLIMEGATQADWQHRVPKEYHSREPRVNLTFRTVYPDPRGAPW
On to B4, for which, in data set [1], the Tm came out at 44.2 ± 0.2 °C, the “ΔH (enthalpy of unfolding)” value was 54 ± 2 kcal/mol, the “ΔS (entropy of unfolding)” value is 170 ± 0.6 cal/mol·K and the “ΔG^298” value is recorded as 3.3 ± 0.1 kcal/mol. Besides, on m3C substrate, the Kd came to 6.3 ± 0.6 µM and the “weakening of contacts with the DNA substrate relative to wt” value is ~2.3 fold.

B5: Y143F ALKBH3: ALKBH3 mutant, Tyr143 replaced with Phe (protein, UniProt Q96Q83 1-286, looked up, variant Y143F)
Alpha-ketoglutarate-dependent …: MEEKRRRARVQGAWAAPVKSQAIAQPATTAKSHLHQKPGQTWKNKEHHLSDREFVFKEPQQVVRRAPEPRVIDREGVYEISLSPTGVSRVCLYPGFVDVKEADWILEQLCQDVPWKQRTGIREDITYQQPRLTAWYGELPYTFSRITMEPNPHWHPVLRTLKNRIEENTGHTFNSLLCNLYRNEKDSVDWHSDDEPSLGRCPIIASLSFGATRTFEMRKKPPPEENGDYTYVERVKIPLDHGTLLIMEGATQADWQHRVPKEYHSREPRVNLTFRTVYPDPRGAPW
Regarding B5, in data set [1], the “increase in ΔH relative to wt” value is recorded as 32 kcal/mol, the “increase in ΔS relative to wt” value worked out at 103 cal/mol·K, the “reduction in melting temperature relative to wt” value stood at 2.1 °C and the Tm stood at 43.5 ± 0.4 °C. In addition, in data set [1], the “ΔH (enthalpy of unfolding)” value is recorded as 75 ± 5 kcal/mol, the “ΔS (entropy of unfolding)” value was 236 ± 3 cal/mol·K and the “ΔG^298” value is listed as 4.7 ± 0.3 kcal/mol. Moreover, at m3C substrate, the Kd was determined as 3.8 ± 0.5 µM and the “weakening of contacts with the DNA substrate relative to wt” value was ~1.4 fold.
